Laboratory results taken from patent US20230348575A1.
Where two headings read alike, the source gives them in different places.

Tests used:
[1] = molecular target: RSV F peptide 51-66 presented to CD4+ T cells of BALB/c mice (RSV, A2 strain)
[2] = molecular target: RSV F peptides F85-93 and F249-258 presented to CD8+ T cells of BALB/c mice (RSV, A2 strain)
[3] = molecular target: RSV F peptide 51-66 presented to CD4+ T cells of BALB/c mice (RSV, A2 strain); remark: listed apart in the source
[4] = molecular target: RSV F peptides F85-93 and F249-258 presented to CD8+ T cells of BALB/c mice (RSV, A2 strain); remark: listed apart in the source

## Splenic T cells of BALB/c mice vaccinated with A317 RNA in liposomes RV01(01), day 49 (Example 7B, 10-1001) (cells without a defined receptor)
[1]
  CD4+ CD8- splenic T cells: % cytokine-positive (TNFa+), intracellular cytokine staining, 1 ug: 0.09%
[2]
  CD8+ CD4- splenic T cells: % cytokine-positive (IFNg+), intracellular cytokine staining, 1 ug: 3.69%

## Splenic T cells of BALB/c mice vaccinated with VRPs expressing RSV-F (1E6 IU), day 49 (Example 7B, 10-1001) (cells without a defined receptor)
[1]
  CD4+ CD8- splenic T cells: % cytokine-positive (TNFa+), intracellular cytokine staining: 0.1%
[2]
  CD8+ CD4- splenic T cells: % cytokine-positive (IFNg+), intracellular cytokine staining: 3.48%

## Splenic T cells of unvaccinated BALB/c mice, day 49 (Example 7C, 10-1018) (cells without a defined receptor)
[3]
  CD4+ CD8- splenic T cells: % cytokine-positive (TNFa+), intracellular cytokine staining: 0.01%
[4]
  CD8+ CD4- splenic T cells: % cytokine-positive (IFNg+), intracellular cytokine staining: 0.01%

## Splenic T cells of BALB/c mice vaccinated with A317 RNA in liposomes RV01(01), day 49 (Example 7C, 10-1018) (cells without a defined receptor)
[3]
  CD4+ CD8- splenic T cells: % cytokine-positive (TNFa+), intracellular cytokine staining, 1 ug: 0.09%
[4]
  CD8+ CD4- splenic T cells: % cytokine-positive (IFNg+), intracellular cytokine staining, 10 ug: 3.32%

## Splenic T cells of unvaccinated BALB/c mice, day 49 (Example 7B, 10-1001) (cells without a defined receptor)
[1]
  CD4+ CD8- splenic T cells: % cytokine-positive (TNFa+), intracellular cytokine staining: 0%
[2]
  CD8+ CD4- splenic T cells: % cytokine-positive (IFNg+), intracellular cytokine staining: 0.01%

## Splenic T cells of BALB/c mice vaccinated with A317 RNA formulated with CNE17, day 49 (Example 7B, 10-1001) (cells without a defined receptor)
[1]
  CD4+ CD8- splenic T cells: % cytokine-positive (TNFa+), intracellular cytokine staining, 1 ug: 0.05%
[2]
  CD8+ CD4- splenic T cells: % cytokine-positive (IFNg+), intracellular cytokine staining, 1 ug: 1.25%

## Splenic T cells of BALB/c mice vaccinated with A317 RNA (10 ug) with electroporation, day 49 (Example 7B, 10-1001) (cells without a defined receptor)
[1]
  CD4+ CD8- splenic T cells: % cytokine-positive (TNFa+), intracellular cytokine staining: 0.05%
[2]
  CD8+ CD4- splenic T cells: % cytokine-positive (IFNg+), intracellular cytokine staining: 0.85%

## Splenic T cells of BALB/c mice vaccinated with naked A317 RNA (1 ug), day 49 (Example 7B, 10-1001) (cells without a defined receptor)
[1]
  CD4+ CD8- splenic T cells: % cytokine-positive (TNFa+), intracellular cytokine staining: 0.03%
[2]
  CD8+ CD4- splenic T cells: % cytokine-positive (IFNg+), intracellular cytokine staining: 0.74%

## Splenic T cells of BALB/c mice vaccinated with VRPs expressing RSV-F (1E6 IU), day 49 (Example 7C, 10-1018) (cells without a defined receptor)
[3]
  CD4+ CD8- splenic T cells: % cytokine-positive (TNFa+), intracellular cytokine staining: 0.07%
[4]
  CD8+ CD4- splenic T cells: % cytokine-positive (IFNg+), intracellular cytokine staining: 2.45%

## Splenic T cells of BALB/c mice vaccinated with naked A317 RNA, day 49 (Example 7C, 10-1018) (cells without a defined receptor)
[3]
  CD4+ CD8- splenic T cells: % cytokine-positive (TNFa+), intracellular cytokine staining, 1 ug: 0.03%
[4]
  CD8+ CD4- splenic T cells: % cytokine-positive (IFNg+), intracellular cytokine staining, 1 ug: 1.68%
